Experiments:
[1] = molecular target: SNAPC1;SNAPC2;SNAPC3;SNAPC4 full length;SNAPC5 (Homo sapiens;Homo sapiens;Homo …, UniProt Q16533;Q13487;Q92966;Q5SXM2;O75971 1-368;1-334;1-411;1-1469;1-98, ||||); experiment: EMSA; SNAPc-FL alone; EMSA: 250 mM NaCl, 50 mM HEPES pH 7.9, 20% glycerol, 1 mM TCEP, room temperature 15 min; 20 pM SNAPc, 5 pM DNA, 25 pM TBP/TFIIB (units as printed). Cryo-EM: ass; details: protein: recombinant;recombinant;recombinant;recombinant;recombinant; tags: ;;;N-terminal StrepTwin, C-terminal His;; copies: 1;1;1;1;1; blunt
[2] = molecular target: SNAPC1;SNAPC3;SNAPC4 1-516;SNAPC5 (Homo sapiens;Homo sapiens;Homo …, UniProt Q16533;Q92966;Q5SXM2;O75971 1-368;1-411;1-516;1-98, |||); experiment: EMSA; SNAPc-core alone; EMSA: 250 mM NaCl, 50 mM HEPES pH 7.9, 20% glycerol, 1 mM TCEP, room temperature 15 min; 20 pM SNAPc, 5 pM DNA, 25 pM TBP/TFIIB (units as printed). Cryo-EM: ass; details: protein: recombinant;recombinant;recombinant;recombinant; tags: ;;;; copies: 1;1;1;1; blunt
[3] = molecular target: SNAPC1;SNAPC2;SNAPC3;SNAPC4 full length;SNAPC5;TBP;TFIIB (Homo sapiens;Homo sapiens;Homo …, UniProt Q16533;Q13487;Q92966;Q5SXM2;O75971;P20226;Q00403 …, ||||||); experiment: EMSA; SNAPc-FL with TBP and TFIIB; EMSA: 250 mM NaCl, 50 mM HEPES pH 7.9, 20% glycerol, 1 mM TCEP, room temperature 15 min; 20 pM SNAPc, 5 pM DNA, 25 pM TBP/TFIIB (units as printed). Cryo-EM: ass; details: protein: recombinant;recombinant;recombinant;recombinant;recombinant;recombinant;recombinant; tags: ;;;N-terminal StrepTwin, C-terminal His;;;; copies: 1;1;1;1;1;1;1; blunt
[4] = molecular target: SNAPC1;SNAPC3;SNAPC4 1-516;SNAPC5;TBP;TFIIB (Homo sapiens;Homo sapiens;Homo …, UniProt Q16533;Q92966;Q5SXM2;O75971;P20226;Q00403 1-368;1-411;1-516;1-98;1-339;1-316, |||||); experiment: EMSA; SNAPc-core with TBP and TFIIB; EMSA: 250 mM NaCl, 50 mM HEPES pH 7.9, 20% glycerol, 1 mM TCEP, room temperature 15 min; 20 pM SNAPc, 5 pM DNA, 25 pM TBP/TFIIB (units as printed). Cryo-EM: ass; details: protein: recombinant;recombinant;recombinant;recombinant;recombinant;recombinant; tags: ;;;;;; copies: 1;1;1;1;1;1; blunt
[5] = molecular target: SNAPC1;SNAPC3;SNAPC4 1-516;SNAPC5;TBP;TFIIB;TFIIA (Homo sapiens;Homo sapiens;Homo …, UniProt Q16533;Q92966;Q5SXM2;O75971;P20226;Q00403;P52655;P52657 …, ||||||); experiment: cryo-EM; local map of SNAPc-containing upstream complex; GraFix; EMSA: 250 mM NaCl, 50 mM HEPES pH 7.9, 20% glycerol, 1 mM TCEP, room temperature 15 min; 20 pM SNAPc, 5 pM DNA, 25 pM TBP/TFIIB (units as printed). Cryo-EM: ass; details: protein: recombinant;recombinant;recombinant;recombinant;recombinant;recombinant;recombinant; tags: ;;;;;;; copies: 1;1;1;1;1;1;1;1; blunt
[6] = molecular target: SNAPC1;SNAPC3;SNAPC4 1-516;SNAPC5;TBP;TFIIB;TFIIA;TFIIF;RNA polymerase II (Homo sapiens;Homo sapiens;Homo …, UniProt Q16533;Q92966;Q5SXM2;O75971;P20226;Q00403;P52655;P52657;P35269;P13984;A0A8D1DPV6 …, ||||||||); experiment: cryo-EM; closed complex; GraFix; TFIIE added in assembly; Zn2+ in SNAPC3; EMSA: 250 mM NaCl, 50 mM HEPES pH 7.9, 20% glycerol, 1 mM TCEP, room temperature 15 min; 20 pM SNAPc, 5 pM DNA, 25 pM TBP/TFIIB (units as printed). Cryo-EM: ass; details: tags: ;;;;;;;;; copies: 1;1;1;1;1;1;1;1;1;1;1;1;1;1;1;1;1;1;1;1;1;1; blunt

Measured: binding result

B1: U5 promoter EMSA fragment (75 bp) (dsDNA)
DNA 1: ACCAGTTACTTCTGTAACTCAATTTTCGGGTAACTGCAATTCCTAGTACACTGATGGTGTCTACTAATCCCAAGG
DNA 2: CCTTGGGATTAGTAGACACCATCAGTGTACTAGGAATTGCAGTTACCCGAAAATTGAGTTACAGAAGTAACTGGT
binds: [1] | [2] | [3] | [4]

B2: U1 promoter EMSA fragment (76 bp) (dsDNA)
DNA 1: GAAACGTTGTGCCTCTGCCCCGACACAGCCTCATACGCCTCACTCTTTACACACACGGTCACTTGCCCCGCGCACT
DNA 2: AGTGCGCGGGGCAAGTGACCGTGTGTGTAAAGAGTGAGGCGTATGAGGCTGTGTCGGGGCAGAGGCACAACGTTTC
binds: [1] | [2] | [3] | [4]

B3: engineered U5 promoter cryo-EM scaffold (96 bp) (dsDNA)
DNA 1: AGTAGACACCATCAGTGTACTAGGACCCGAAAATTGAGTTACAGAAGTAACTGGTATACTCTGGTTTCTCTTCAGATCGCATAAAACCTGGCAGGG
DNA 2: CCCTGCCAGGTTTTATGCGATCTGAAGAGAAACCAGAGTATACCAGTTACTTCTGTAACTCAATTTTCGGGTCCTAGTACACTGATGGTGTCTACT
binds: [5] | [6]

From PMC9758055
